# From US20250215491, “SEQUENCING WITH SINGLE-STRANDED BINDING PROTEINS” (ILLUMINA, INC., published 2025)
# Positions count from the first letter of the chain named.
# T1: Tth SSB (Rev 101) (Thermus thermophilus HB8, UniProt Q5SLP9 SEQ:21-283)
# T1 sequence: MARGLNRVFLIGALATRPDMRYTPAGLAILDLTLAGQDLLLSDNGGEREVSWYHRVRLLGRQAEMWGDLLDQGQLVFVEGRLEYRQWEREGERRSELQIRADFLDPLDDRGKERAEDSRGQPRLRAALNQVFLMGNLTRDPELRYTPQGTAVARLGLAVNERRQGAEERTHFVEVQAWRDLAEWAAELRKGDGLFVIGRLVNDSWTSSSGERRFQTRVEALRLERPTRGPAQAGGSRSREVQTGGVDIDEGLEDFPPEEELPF
# T2: Tth SSB F255P (Rev 101 F225P) (Thermus thermophilus HB8, UniProt Q5SLP9 SEQ:21-283)
# T2 chain: T1 sequence with F255P
# Columns and labels:
# Tth SSB (Rev 101) = target: T1, Tth SSB (Rev 101); assay: EMSA; Kd value only in FIG. 12; 50 mM Tris pH 7.5, 50 mM NaCl, 0.1 mM DTT, 60 C 10 min; 0.25 nM oligo; protein 0.1-4 uM; conditions: chain copies: 2 (inferred); label: 5'-FAM
# Protocol: (§1) An electrophoretic mobility shift assay was used to determine the binding affinity (Kd) for the Tth F255P SSB and Tth SSB. An oligonucleotide of 35 bases labelled at the 5′ end with fluorescein (FAM) dye was used as the substrate. The sequence of the oligonucleotide is 5′ FAM GTGTAGATCTCGGTGGTCGCCGTATCATTAAAAAA (SEQ ID NO: 14). A titration of Tth F255P SSB or Tth SSB was used ranging from 0.1 to 4 μM. The reaction buffer was 50 mM Tris pH 7.5, 50 mM NaCl, and 0.1 mM DTT with each reaction utilizing […] of labelled oligonucleotide. The reactions were incubated at 60° C. for 10 minutes. The reactions were resolved on 10% acrylamide native TBE gel and imaged with Typhoon Scanner. The fraction of bound versus unbound for each concentration tested was determined and fitted for Kd analysis.
# [1] = target: T2, Tth SSB F255P (Rev 101 F225P); assay: as above; conditions: chain copies: 2 (inferred); label: 5'-FAM
# Protocol: as §1
binder,measurement,setting,value
GTGTAGATCTCGGTGGTCGCCGTATCATTAAAAAA (ssDNA) [5'-FAM 35-mer oligonucleotide],binding result,Tth SSB (Rev 101),binds
same,binding result,[1],binds
